Data as given in publication doi:10.1101/2023.07.29.551094.

Biological target: TslA lipase domain, purified (S. aureus)
Assay: ITC

B1: TilA (SAOUHSC_00405) lacking its signal sequence, His tag removed (natural protein)
chain: CGNMKDEQKKEEQTNKTDSKEEQIKKSFAKTLDMYPIKNLEDLYDKEGYRDGEFKKGDKGTWTILTGFSKSNKPGVLDDEGMVLYLNRNTKKATGYYFVNKVYDDISKNHNEKKYRVELKNNKIVLLDNVEDKKLKQKIENFKFFSQYADFKDLKNYQDGNITTNENVPSYEAQYKMNNSDKNVKKLREIYPITTNNSPNLKLYIDGDIKGSSVGYKKIEYKFSKDKGQETTLRDYLNFGPSEGENVE
Kd: 14.2 nM
dH: -20.5 kcal/mol
stoichiometry N: 0.88
